Biological target: T1, Replication protein A (RPA), consisting of Rfa1, Rfa2 and Rfa3 (budding yeast, UniProt P22336 1-621; P26754 1-273; P26755 1-122)
T1 construct: Rfa1, subunit of budding yeast RPA; Rfa2, subunit of budding yeast RPA; Rfa3, subunit of budding yeast RPA; also called budding yeast RPA protein; source: purified as described [83]; copies: + +
Assay: pull-down; streptavidin beads coated with biotinylated oligonucleotide bio-oligo(dN)80 (5 pmol), incubated with RPA (1 pmol) for 30 min, then with Mec1-Ddc2, Mec1-Ddc2-S4, MBP, MBP-Ddc2 or MBP-Ddc2-S4 (0.5 pmol) for 30 min; buffer B (20 mM Tris-HCl pH 7.5, 100 mM NaCl, 0.01% NP-40, 10% glycerol, 100 μg/ml BSA), 30°C; immunoblot of captured proteins
Conditions: both partners purified

T1 sequence (P22336 whole entry, chain 1 of 3): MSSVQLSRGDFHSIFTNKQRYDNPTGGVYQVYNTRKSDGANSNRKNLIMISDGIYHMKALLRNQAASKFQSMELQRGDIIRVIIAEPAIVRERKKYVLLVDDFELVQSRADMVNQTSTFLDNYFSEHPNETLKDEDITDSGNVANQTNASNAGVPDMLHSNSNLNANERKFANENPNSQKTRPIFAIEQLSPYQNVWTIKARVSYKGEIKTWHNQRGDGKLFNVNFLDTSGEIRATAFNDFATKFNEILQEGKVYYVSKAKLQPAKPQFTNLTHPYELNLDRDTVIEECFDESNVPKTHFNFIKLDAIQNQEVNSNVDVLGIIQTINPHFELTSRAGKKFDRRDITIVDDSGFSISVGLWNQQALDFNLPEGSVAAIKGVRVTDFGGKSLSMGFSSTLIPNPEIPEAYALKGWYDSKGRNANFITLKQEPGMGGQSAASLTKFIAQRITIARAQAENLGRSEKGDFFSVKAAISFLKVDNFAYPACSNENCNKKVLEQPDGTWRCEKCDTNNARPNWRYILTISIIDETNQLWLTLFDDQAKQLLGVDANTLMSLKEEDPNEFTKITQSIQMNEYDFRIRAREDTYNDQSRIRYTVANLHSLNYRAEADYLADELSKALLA
T1 sequence (P26754 whole entry, chain 2 of 3): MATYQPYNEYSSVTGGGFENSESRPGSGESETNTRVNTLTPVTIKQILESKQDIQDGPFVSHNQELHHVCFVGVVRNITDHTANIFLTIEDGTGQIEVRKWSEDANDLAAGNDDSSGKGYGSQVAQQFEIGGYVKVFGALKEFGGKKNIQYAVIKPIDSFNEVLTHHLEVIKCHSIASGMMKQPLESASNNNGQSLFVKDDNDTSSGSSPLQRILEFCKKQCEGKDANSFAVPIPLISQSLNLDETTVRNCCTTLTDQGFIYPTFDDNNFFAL
T1 sequence (P26755 whole entry, chain 3 of 3): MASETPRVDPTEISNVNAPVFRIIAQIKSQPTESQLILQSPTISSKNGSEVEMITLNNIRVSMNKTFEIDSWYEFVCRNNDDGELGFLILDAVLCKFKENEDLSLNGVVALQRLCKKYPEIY

| binding result | Binder |
| --- | --- |
| binds | MBP-Ddc2 (natural protein, budding yeast, UniProt Q04377 1-747, looked up, Ddc2 (ATRIP homolog), budding yeast; also called MBP-fused Ddc2; pMAL-Ddc2; source: E. coli Rosetta, purified (amylose resin)) MRRETVGEFSSDDDDDILLELGTRPPRFTQIPPSSAALQTQIPTTLEVTTTTLNNKQSKNDNQLVNQLNKAQGEASMLRDKINFLNIEREKEKNIQAVKVNELQVKHLQELAKLKQELQKLEDEKKFLQMEARGKSKREVITNVKPPSTTLSTNTNTITPDSSSVAIEAKPQSPQSKKRKISDNLLKKNMVPLNPNRIIPDETSLFLESILLHQIIGADLSTIEILNRLKLDYITEFKFKNFVIAKGAPIGKSIVSLLLRCKKTLTLDRFIDTLLEDIAVLIKEISVHPNESKLAVPFLVALMYQIVQFRPSATHNLALKDCFLFICDLIRIYHHVLKVPIHESNMNLHVEPQIFQYELIDYLIISYSFDLLEGILRVLQSHPKQTYMEFFDENILKSFEFVYKLALTISYKPMVNVIFSAVEVVNIITSIILNMDNSSDLKSLISGSWWRDCITRLYALLEKEIKSGDVYNENVDTTTLHMSKYHDFFGLIRNIGDNELGGLISKLIYTDRLQSVPRVISKEDIGMDSDKFTAPIIGYKMEKWLLKLKDEVLNIFENLLMIYGDDATIVNGEMLIHSSKFLSREQALMIERYVGQDSPNLDLRCHLIEHTLTIIYRLWKDHFKQLREEQIKQVESQLIMSLWRFLVCQTETVTANEREMRDHRHLVDSLHDLTIKDQASYYEDAFEDLPEYIEEELKMQLNKRTGRIMQVKYDEKFQEMARTILESKSFDLTTLEEADSLYISMGL |
| binds | MBP-Ddc2-S4 (natural protein, budding yeast, UniProt Q04377 1-747, looked up, Ddc2 (ATRIP homolog), budding yeast, with the two ddc2-S4 substitutions; also called MBP-fused Ddc2-S4; pMAL-Ddc2-S4; source: E. coli Rosetta, purified (amylose resin)) MRRETVGEFSSDDDDDILLELGTRPPRFTQIPPSSAALQTQIPTTLEVTTTTLNNKQSKNDNQLVNQLNKAQGEASMLRDKINFLNIEREKEKNIQAVKVNELQVKHLQELAKLKQELQKLEDEKKFLQMEARGKSKREVITNVKPPSTTLSTNTNTITPDSSSVAIEAKPQSPQSKKRKISDNLLKKNMVPLNPNRIIPDETSLFLESILLHQIIGADLSTIEILNRLKLDYITEFKFKNFVIAKGAPIGKSIVSLLLRCKETLTLDRFIDTLLEDIAVLIKEISVHPNESKLAVPFLVALMYQIVQFRPSATHNLALKDCFLFICDLIRIYHHVLKVPIHESNMNLHVEPQIFQYELIDYLIISYSFDLLEGILRVLQSYPKQTYMEFFDENILKSFEFVYKLALTISYKPMVNVIFSAVEVVNIITSIILNMDNSSDLKSLISGSWWRDCITRLYALLEKEIKSGDVYNENVDTTTLHMSKYHDFFGLIRNIGDNELGGLISKLIYTDRLQSVPRVISKEDIGMDSDKFTAPIIGYKMEKWLLKLKDEVLNIFENLLMIYGDDATIVNGEMLIHSSKFLSREQALMIERYVGQDSPNLDLRCHLIEHTLTIIYRLWKDHFKQLREEQIKQVESQLIMSLWRFLVCQTETVTANEREMRDHRHLVDSLHDLTIKDQASYYEDAFEDLPEYIEEELKMQLNKRTGRIMQVKYDEKFQEMARTILESKSFDLTTLEEADSLYISMGL |

— paper PMC6692047, “Ddc2^ATRIP promotes Mec1^ATR activation at RPA-ssDNA tracts” (PLoS Genetics, 2019)
